Experimental data reported in the RNAGym collection of RNA variant scans (doi:10.7554/elife.90254).

B1: LINE1-full (parent)
chain: UACGUAGGUGGUUUUCCCCUGAUAGUGCUAAGGGGGCCUGGAAGUUUGGACUGGGCAGAGCUCAACACAGCGUGGCAAAGUGGCUGUGGCUAGACUGCCUCUCUGGAUUCCUCGUCACUCAGCAGGGCAUCUCUGAGAGAAAUGCC

Variants of: B1
Experiment: self-cleavage, relative activity (ratio to wild type); higher = more cleavage; in vitro, sequencing; the parent is a self-cleaving ribozyme
U45C U102C gave a self-cleavage of 1.55. For U46C A59G, the self-cleavage was 0.16. Variant U45A C51G has a self-cleavage of 1.44. For U45C A107U, the self-cleavage was 1.34. In the case of U46G U73G, the self-cleavage is reported as 1.5. With G44A A129U the self-cleavage was 1.43. Variant U45C A141U has a self-cleavage of 1.79. U45A U96C showed a self-cleavage of 0.13. With U45A A67U the self-cleavage was 0.09. Variant G44A U46C has a self-cleavage of 1.06. U45C A94U showed a self-cleavage of 0.33. In the case of U46C U73G, the self-cleavage is reported as 1.65. U45C C84A gave a self-cleavage of 0.09. U45C C84U showed a self-cleavage of 0.04. U45A A57C showed a self-cleavage of 0.14. In the case of U45A A138U, the self-cleavage is reported as 1.31. U45A A138G showed a self-cleavage of 1.32. U45C G93U gave a self-cleavage of 0.03. For U45C A129U, the self-cleavage was 1.03. In the case of U45C A129G, the self-cleavage is reported as 1.4. Work on U45C A50U yielded a self-cleavage of 1.02. U45C A50G showed a self-cleavage of 1. Variant U45C A79G has a self-cleavage of 1.15. Variant U45C A79U has a self-cleavage of 1.92. With G44A A117G the self-cleavage was 1.21. With U46C G89A the self-cleavage was 0.04. In the case of U46A U119C, the self-cleavage is reported as 0.92. U45C A140U gave a self-cleavage of 1.05. For U46A G114A, the self-cleavage was 1.08. For G44A U47C, the self-cleavage was 1.51. For U46G U115C, the self-cleavage was 1.69. Work on U45A G105A yielded a self-cleavage of 1.56. U45A A50G showed a self-cleavage of 0.95. For U45G U47A, the self-cleavage was 1.19. Variant U45A A65G has a self-cleavage of 0.07. U46C U91A gave a self-cleavage of 0.53. Variant U46C A64G has a self-cleavage of 0.38. U46A G70A gave a self-cleavage of 0.24. U45C C131A showed a self-cleavage of 1.67. In the case of U45C C66U, the self-cleavage is reported as 0.04. With U46C C145U the self-cleavage was 1.58. Variant U45G A57U has a self-cleavage of 0.18. With U46A U134C the self-cleavage was 1.84. Work on U46G U91C yielded a self-cleavage of 0.74. With U46C U81C the self-cleavage was 1.46. In the case of U45G C120U, the self-cleavage is reported as 1.49. Work on U46C A92U yielded a self-cleavage of 0.76. With G44C U112C the self-cleavage was 1.18. U46G A117G gave a self-cleavage of 2.26. Variant U46C G54A has a self-cleavage of 1.21. In the case of U45C U115A, the self-cleavage is reported as 1.49. For U47A A117C, the self-cleavage was 1.32. In the case of U47A A117G, the self-cleavage is reported as 1.38. In the case of U47A A117U, the self-cleavage is reported as 1.25. U46A C146U showed a self-cleavage of 1.63. U45A U100C showed a self-cleavage of 1.05. U45G U109C gave a self-cleavage of 0.66. With U45C C90U the self-cleavage was 0.08. With U46C A78U the self-cleavage was 1.85. Variant U45A A77U has a self-cleavage of 1.56. U45C A65G showed a self-cleavage of 0.04. In the case of U45C A65U, the self-cleavage is reported as 0.22. Variant U47A A94G has a self-cleavage of 0.23. Work on U45G A67G yielded a self-cleavage of 0.45. Work on G44C U91C yielded a self-cleavage of 0.14. Work on U45A G74U yielded a self-cleavage of 1.59. Work on U46C A50U yielded a self-cleavage of 1.26. Work on U45A G139A yielded a self-cleavage of 1.33. In the case of U46A U52C, the self-cleavage is reported as 1.56. For U46A U52G, the self-cleavage was 1.33. Variant U45C G58A has a self-cleavage of 0.04. For U45A U109C, the self-cleavage was 1.4. For G44A A94U, the self-cleavage was 0. For G44A A94G, the self-cleavage was 0.27. U45G G97A showed a self-cleavage of 0.07. For U45C C68U, the self-cleavage was 0.16. U45G A121U gave a self-cleavage of 1.82. U45G A121G gave a self-cleavage of 0.46. With U45G A121C the self-cleavage was 2.14. In the case of U45C A117G, the self-cleavage is reported as 0. For U45G G49A, the self-cleavage was 1.25. U45C U81C gave a self-cleavage of 0.94. U46C C128U showed a self-cleavage of 0.6. U46C G125U showed a self-cleavage of 0.8. With U46G A140G the self-cleavage was 1.78. Variant U45C G72A has a self-cleavage of 1.25. U46G G144U gave a self-cleavage of 0.95. In the case of U46A C68U, the self-cleavage is reported as 0.07. U45C C120G gave a self-cleavage of 2.05. U45A U119A showed a self-cleavage of 1.44. In the case of U45A U119C, the self-cleavage is reported as 1.47. U46C A94G showed a self-cleavage of 0.4. U45C A121U gave a self-cleavage of 1.13. U45C A121G gave a self-cleavage of 1.71. With U46A U47A the self-cleavage was 1.09. U46A U47C gave a self-cleavage of 1.13. With U46A C113U the self-cleavage was 1.16. U47A A121C showed a self-cleavage of 1.49. Work on U45C U52C yielded a self-cleavage of 0.95. With U46A G125C the self-cleavage was 1.35. For U45G U46C, the self-cleavage was 1.31. Variant U45A C95U has a self-cleavage of 0.18. Variant G44A A67G has a self-cleavage of 0.37. U45A A136U gave a self-cleavage of 1.9. U45G A129U gave a self-cleavage of 0.67. With G44A U91C the self-cleavage was 0.65. Work on U47A A64G yielded a self-cleavage of 0.2. Work on U46A A77G yielded a self-cleavage of 2.14. U45A U85C gave a self-cleavage of 0.24. In the case of U47A A59U, the self-cleavage is reported as 0.81. With U46A U87C the self-cleavage was 0.19. Work on U46C A141G yielded a self-cleavage of 1.41. With U45C A136U the self-cleavage was 1.49. U45C A136G showed a self-cleavage of 1.5. U46C C66U showed a self-cleavage of 0.02. U46C A107U gave a self-cleavage of 1.53. U46C A107G gave a self-cleavage of 1.06. For U45C G126U, the self-cleavage was 1.34. Work on U46G A50G yielded a self-cleavage of 0.92. With U45G A107G the self-cleavage was 0. U46A A69U showed a self-cleavage of 0.05. U46A A69G showed a self-cleavage of 0.36. U46C U47A showed a self-cleavage of 1.37. Work on U46C U47C yielded a self-cleavage of 1.95. U45A C63A showed a self-cleavage of 0.05. Work on U45C C76U yielded a self-cleavage of 1.89. Work on G44A A140G yielded a self-cleavage of 1.34. In the case of U45C U100A, the self-cleavage is reported as 0.58. With U45C U100C the self-cleavage was 1.93. Work on U45G U96C yielded a self-cleavage of 0.05. Variant U45A U130C has a self-cleavage of 1.86. U46A A94G showed a self-cleavage of 0.16. Work on U46C C76U yielded a self-cleavage of 2.44. In the case of G44A U134G, the self-cleavage is reported as 1.02. For U46A U104A, the self-cleavage was 0.9. Work on U46C C68U yielded a self-cleavage of 0.44. In the case of U46C U112C, the self-cleavage is reported as 1.78. With U46C U112A the self-cleavage was 1.26. In the case of U45C C128U, the self-cleavage is reported as 1.32. Variant U45C G97A has a self-cleavage of 0.07. Work on U45A U112A yielded a self-cleavage of 1.21. Variant U46G A79U has a self-cleavage of 2.15. With U46C U109C the self-cleavage was 1.41. In the case of U45G A92G, the self-cleavage is reported as 0.09. With U47A A65G the self-cleavage was 0.07. U46G A141G gave a self-cleavage of 1.16. U46C U85G showed a self-cleavage of 0.37. Work on U46C U85C yielded a self-cleavage of 0.35. Variant U46A A140G has a self-cleavage of 0.9. Variant U46A A140U has a self-cleavage of 1.12. Work on U46C A138G yielded a self-cleavage of 1.29. For U46C A138C, the self-cleavage was 0. Variant U45G C113A has a self-cleavage of 0.98. For U46A A124U, the self-cleavage was 1.11. Variant U46A A124G has a self-cleavage of 0.8. With U45C U104C the self-cleavage was 1.42. In the case of U45A A78G, the self-cleavage is reported as 1.11. U45C U62C showed a self-cleavage of 0.07. For U47A A50U, the self-cleavage was 0.87. For U46C A129C, the self-cleavage was 1.99. In the case of G44A A50U, the self-cleavage is reported as 0.94. With U47A A57G the self-cleavage was 0.54. In the case of U45C G53A, the self-cleavage is reported as 1.64. In the case of U47A A77G, the self-cleavage is reported as 2.01. With U46A G137A the self-cleavage was 0.98. In the case of U45C U73C, the self-cleavage is reported as 1.92. In the case of U45C U73A, the self-cleavage is reported as 1.68.
